The test concerns the target T1, RAS Q61WT[55-64] pHLA-A1 (human).
T1 construct: also called Q61WT pHLA-A1; H/K/N RAS WT(55-64) peptide on HLA-A1
In words: flow cytometry: scFv phage supernatant on peptide-pulsed SigM5 cells (HLA-A1+), median fluorescence intensity. On the technique in general: A flow cytometer gives signals particle by particle.

The values that follow come from patent publication US20230051847A1 (Johns Hopkins, published 2023).

B1: H/K/N RAS Q61L_A1_cl6 (scFv)
scFv: DIQMTQSPSSLSASVGDRVTITCRASQDVNTAVAWYQQKPGKAPKLLIYSASFLYSGVPSRFSGSRSGTDFTLTISSLQPEDFATYYCQQSYYSPWTFGQGTKVEIKRTGGGSGGGGSGGGASEVQLVESGGGLVQPGGSLRLSCAASGFNISYSNIHWVRQAPGKGLEWVAMIYGTRGGTYYADSVKGRFTISADTSKNTAYLQMNSLRAEDTAVYYCSRYYSYAMDYWGQGTLVTVSS
With B1, the binding result is listed as “no binding”.

B2: H/K/N RAS Q61L_A1_cl4 (scFv)
scFv: DIQMTQSPSSLSASVGDRVTITCRASQDVNTAVAWYQQKPGKAPKLLIYSASFLYSGVPSRFSGSRSGTDFTLTISSLQPEDFATYYCQQSWYSPSTFGQGTKVEIKRTGGGSGGGGSGGGASEVQLVESGGGLVQPGGSLRLSCAASGFNISASGMHWVRQAPGKGLEWVAWIWGGSSYTYYADSVKGRFTISADTSKNTAYLQMNSLRAEDTAVYYCSRGQYLSYMDYWGQGTLVTVSS
With B2, the binding result is listed as “no binding”.

B3: H/K/N RAS Q61L_A1_cl9 (scFv)
scFv: DIQMTQSPSSLSASVGDRVTITCRASQDVNTAVAWYQQKPGKAPKLLIYSASFLYSGVPSRFSGSRSGTDFTLTISSLQPEDFATYYCQQTYYYPFTFGQGTKVEIKRTGGGSGGGGSGGGASEVQLVESGGGLVQPGGSLRLSCAASGFNLYAWGMHWVRQAPGKGLEWVALVYGGWGSTSYADSVKGRFTISADTSKNTAYLQMNSLRAEDTAVYYCSRAGSSKMSAGAFDYWGQGTLVTVSS
On to B3, for which the binding result is listed as “no binding”.

B4: H/K/N RAS Q61L_A1_cl3 (scFv)
scFv: DIQMTQSPSSLSASVGDRVTITCRASQDVNTAVAWYQQKPGKAPKLLIYSASFLYSGVPSRFSGSRSGTDFTLTISSLQPEDFATYYCQQTSSYPITFGQGTKVEIKRTGGGSGGGGSGGGASEVQLVESGGGLVQPGGSLRLSCAASGFNIYWYGMHWVRQAPGKGLEWVAQVYPWSGFTYYADSVKGRFTISADTSKNTAYLQMNSLRAEDTAVYYCSRDYYSYSLDYWGQGTLVTVSS
In the case of B4, the binding result is listed as “no binding”.

B5: H/K/N RAS Q61L_A1_cl10 (scFv)
scFv: DIQMTQSPSSLSASVGDRVTITCRASQDVNTAVAWYQQKPGKAPKLLIYSASFLYSGVPSRFSGSRSGTDFTLTISSLQPEDFATYYCQQSYYPYYPWTFGQGTKVEIKRTGGGSGGGGSGGGASEVQLVESGGGLVQPGGSLRLSCAASGFNVSHSAMHWVRQAPGKGLEWVATVHPDWGNTYYADSVKGRFTISADTSKNTAYLQMNSLRAEDTAVYYCSRWQQYYYSFDYWGQGTLVTVSS
With B5, the binding result is on record as “no binding”.

B6: H/K/N RAS Q61L_A1_cl8 (scFv)
scFv: DIQMTQSPSSLSASVGDRVTITCRASQDVNTAVAWYQQKPGKAPKLLIYSASFLYSGVPSRFSGSRSGTDFTLTISSLQPEDFATYYCQQSYSSGPVTFGQGTKVEIKRTGGGSGGGGSGGGASEVQLVESGGGLVQPGGSLRLSCAASGFNFSYGGIHWVRQAPGKGLEWVAMIYPLTGYTNYADSVKGRFTISADTSKNTAYLQMNSLRAEDTAVYYCSRDYYYSVDVWGQGTLVTVSS
As to B6, the binding result is given as “no binding”.

B7: H/K/N RAS Q61L_A1_cl7 (scFv)
scFv: DIQMTQSPSSLSASVGDRVTITCRASQDVNTAVAWYQQKPGKAPKLLIYSASFLYSGVPSRFSGSRSGTDFTLTISSLQPEDFATYYCQQAYYPPWTFGQGTKVEIKRTGGGSGGGGSGGGASEVQLVESGGGLVQPGGSLRLSCAASGFNVSRWAMHWVRQAPGKGLEWVARVYPSGYLTYYADSVKGRFTISADTSKNTAYLQMNSLRAEDTAVYYCSRNMQSYMDYWGQGTLVTVSS
Regarding B7, the binding result is on record as “no binding”.

B8: H/K/N RAS Q61L_A1_cl1 (scFv)
scFv: DIQMTQSPSSLSASVGDRVTITCRASQDVNTAVAWYQQKPGKAPKLLIYSASFLYSGVPSRFSGSRSGTDFTLTISSLQPEDFATYYCQQASRQPYTFGQGTKVEIKRTGGGSGGGGSGGGASEVQLVESGGGLVQPGGSLRLSCAASGFNFSESGMHWVRQAPGKGLEWVAHFSGDSGYTYYADSVKGRFTISADTSKNTAYLQMNSLRAEDTAVYYCSRYMYYSGYFDYWGQGTLVTVSS
Turning to B8, the binding result is recorded as “no binding”.
